Measured values as given in paper PMC2731889.

Target: ArdA protein from the conjugative transposon Tn916 (Enterococcus faecalis)
Assay: crystal structure

Q: How did the stoichiometry N turn out when “ArdA protein from the conjugative transposon Tn916 (natural protein)” was run?
A: 2
